These results are taken from patent US20170368136A1.

For one test, the target named is CaMKII. Description: cell-based or functional assay.
The target in a further test is CaMKIV. As to the kind of experiment: cell-based or functional assay.

Chain of CaMKII (chain, from a related filing, as listed by the source): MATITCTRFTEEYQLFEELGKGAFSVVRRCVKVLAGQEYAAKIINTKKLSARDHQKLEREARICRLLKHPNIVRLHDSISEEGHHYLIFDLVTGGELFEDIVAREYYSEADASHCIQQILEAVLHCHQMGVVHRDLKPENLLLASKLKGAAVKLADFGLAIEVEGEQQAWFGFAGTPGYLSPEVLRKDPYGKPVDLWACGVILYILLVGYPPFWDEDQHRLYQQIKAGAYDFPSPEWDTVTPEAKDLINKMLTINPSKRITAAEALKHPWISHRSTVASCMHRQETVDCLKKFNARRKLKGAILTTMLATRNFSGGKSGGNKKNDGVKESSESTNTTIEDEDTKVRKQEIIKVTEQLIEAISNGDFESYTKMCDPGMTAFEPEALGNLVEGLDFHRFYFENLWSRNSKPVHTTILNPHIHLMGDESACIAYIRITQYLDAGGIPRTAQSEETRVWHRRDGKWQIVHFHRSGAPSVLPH

As for KRPPKLGQIGRSKRVVIEDDR [CN21a], the IC50, phosphorylation of syntide 2 by CaMKII in the test with CaMKII came out at 100 nM.

YGRKKRRQRRRKRPPKLGQIGRSKRVVIEDDR (modifications not checked) [tatCN21] yielded a reduction of kinase activity in a kinase panel, 5 µM tatCN21 with CaMKIV of 35%.
